Laboratory results taken from PMC9106297, “Structure of a TRAPPII-Rab11 activation intermediate reveals GTPase substrate selection mechanisms” (Science Advances, 2022).

Legend:
Assay in all cases: cryo-EM structure; TRAPPII purified from yeast, incubated with tenfold molar excess of Rab11/Ypt32-7xHis and calf intestine alkaline phosphatase at 4°C overnight (nucleotide-free Rab), complex purified on Calmodulin Sepharose and by SEC; 10 mM tris (pH 8.0), 150 mM NaCl, 0.1% CHAPS, 1 mM Mg acetate, 1 mM dithiothreitol; single-particle cryo-EM
Conditions in all cases: both partners purified
[1] = molecular target: T1, Trs130 (TRAPPII-specific subunit, in purified TRAPPII) (S. cerevisiae, UniProt Q03660 1-1102)
T1 construct: Trs130, S. cerevisiae, endogenous copy tagged at the C terminus; source: endogenous, purified from S. cerevisiae as a subunit of TRAPPII; not shown: held on Calmodulin Sepharose), C-terminal, kept
T1 sequence (looked up): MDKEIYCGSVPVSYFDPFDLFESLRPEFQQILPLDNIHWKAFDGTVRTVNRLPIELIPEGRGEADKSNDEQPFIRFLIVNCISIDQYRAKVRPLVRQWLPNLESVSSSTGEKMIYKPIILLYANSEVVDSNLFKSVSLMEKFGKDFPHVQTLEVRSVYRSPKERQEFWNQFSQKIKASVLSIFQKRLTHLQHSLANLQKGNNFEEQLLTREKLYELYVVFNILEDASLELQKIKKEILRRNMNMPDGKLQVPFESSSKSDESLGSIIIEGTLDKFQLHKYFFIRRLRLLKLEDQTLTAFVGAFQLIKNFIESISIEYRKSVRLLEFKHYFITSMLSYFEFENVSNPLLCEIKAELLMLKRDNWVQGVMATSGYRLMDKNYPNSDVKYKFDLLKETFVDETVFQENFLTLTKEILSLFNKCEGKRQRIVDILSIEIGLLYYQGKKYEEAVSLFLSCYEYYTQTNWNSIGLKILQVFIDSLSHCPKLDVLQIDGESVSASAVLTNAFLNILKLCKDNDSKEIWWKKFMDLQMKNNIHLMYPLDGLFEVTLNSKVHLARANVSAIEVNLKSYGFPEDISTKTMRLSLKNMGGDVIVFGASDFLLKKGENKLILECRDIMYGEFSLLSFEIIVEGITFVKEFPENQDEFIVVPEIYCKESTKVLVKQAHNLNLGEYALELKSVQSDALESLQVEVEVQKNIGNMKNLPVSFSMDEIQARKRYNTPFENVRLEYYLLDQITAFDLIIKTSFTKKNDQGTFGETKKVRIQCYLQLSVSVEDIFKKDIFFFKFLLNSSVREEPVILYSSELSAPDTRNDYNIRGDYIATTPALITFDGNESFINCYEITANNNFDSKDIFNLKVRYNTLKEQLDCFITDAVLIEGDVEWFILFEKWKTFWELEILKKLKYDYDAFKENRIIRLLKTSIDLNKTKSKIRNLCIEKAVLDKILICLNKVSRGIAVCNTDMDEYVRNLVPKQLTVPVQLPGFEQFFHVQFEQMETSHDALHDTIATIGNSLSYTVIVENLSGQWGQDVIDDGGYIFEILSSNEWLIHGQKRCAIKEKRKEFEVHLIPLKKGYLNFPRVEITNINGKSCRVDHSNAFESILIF

[2] = molecular target: T2, Trs33 (TRAPP core subunit, in purified TRAPPII) (S. cerevisiae, UniProt Q99394 1-268)
T2 construct: Trs33, S. cerevisiae, endogenous; source: endogenous, purified from S. cerevisiae as a subunit of TRAPPII
T2 sequence (looked up): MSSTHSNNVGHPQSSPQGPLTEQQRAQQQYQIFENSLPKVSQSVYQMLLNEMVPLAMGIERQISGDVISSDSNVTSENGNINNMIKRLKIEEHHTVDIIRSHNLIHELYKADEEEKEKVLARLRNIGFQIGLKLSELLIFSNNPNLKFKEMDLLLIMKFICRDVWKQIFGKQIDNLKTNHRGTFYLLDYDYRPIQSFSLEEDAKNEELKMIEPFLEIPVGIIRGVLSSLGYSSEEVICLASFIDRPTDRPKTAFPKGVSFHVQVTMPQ

[3] = molecular target: T3, Bet3 (TRAPP core subunit, in purified TRAPPII) (S. cerevisiae, UniProt P36149 1-193)
T3 construct: Bet3, S. cerevisiae, endogenous; source: endogenous, purified from S. cerevisiae as a subunit of TRAPPII
T3 sequence (looked up): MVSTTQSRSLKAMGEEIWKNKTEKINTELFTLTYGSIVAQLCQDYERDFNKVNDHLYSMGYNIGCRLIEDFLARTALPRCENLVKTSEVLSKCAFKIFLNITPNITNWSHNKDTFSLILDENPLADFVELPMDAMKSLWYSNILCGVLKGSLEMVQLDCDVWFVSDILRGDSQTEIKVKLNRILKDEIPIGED

binding result [1]: binds
binding result [2]: binds
binding result [3]: binds
B1: Tca17 (TRAPPII subunit, in purified TRAPPII) (natural protein, S. cerevisiae, UniProt P32613 1-152, looked up)
chain: MSLRPCFVSLIDESDKPILIYVPNEAENEMNDVLKYNVLSNISLDYFESALVEWHSLDSKPLLKSIFQLEGVSVFAMLIKQTGLKIVIGFEQKSLSGADDEFEAINQIFETVRKIYIRVKCNPLLVSGDEKSIIKSLERKFDELFISTEVEL
notes: Tca17, S. cerevisiae, endogenous; source: endogenous, purified from S. cerevisiae as a subunit of TRAPPII
